Source: patent US8980614B2, “Staphylococcus haemolyticus prophage φSH2 endolysin is lytic for Staphylococcus aureus” (The United States of America, as represented by The …, priority 2012, dated 2015)

Legend:
S. aureus Newman cells [1] = assay: Turbidity reduction assay; type: cell-based, Staphylococcus aureus
Procedure: The turbidity reduction assay measures a decrease in optical density of a bacterial suspension due to lysis of the target bacteria by a lytic protein. The assays were performed in a 96-well dish format essentially as described previously (Donovan et al. 2006, supra). In order to reduce the variability of the assay, frozen stocks of S. aureus Newman substrate cells were prepared in a large batch as described by Becker et al. (2009b, supra). Immediately prior to the assay, the frozen cells were thawed, washed, and resuspended in the desired assay buffer such that when 100 μl of cell suspension were added to 100 μl of lysis buffer+/−protein, the final suspension has an OD600nm of ˜1.0.
Protein constructs were assayed at a concentration of 1 μM, and the assay was performed at room temperature, measuring the OD600nm at 1 min intervals for 45 min. Buffer without enzyme served as the control. The steepest slopes of the resulting lysis curves, which correspond to the lytic activities of the proteins, were determined by a sliding window over each group of three consecutive time points for the entire 45 min period. Specific activities were expressed as ΔOD600nm/min/μM, and the “no enzyme” control value was subtracted from each experimental value.
In order to determine the effect of salt concentration on lytic activity, turbidity reduction assays were performed in 10 mM Tris buffers at pH 7.5 with varying NaCl concentrations between 0 mM and 600 mM. Accordingly, the influence of pH was determined by using a series of different buffers with pH values ranging from 3.5 to 10.0. Citrate buffers were used for pH 3.5, 4.5, 5.5, and 6.0, MOPS buffers for pH 6.5, 7.0, and 7.5, Tris buffers for pH 8.0 and 9.0, and Carbonate/bicarbonate buffer for pH 10.0. The concentration of the buffer substance in all buffers used was 20 mM, and the NaCl concentration was 200 mM. To test the effect of bivalent metal ions, assays were performed in 10 mM Tris, 200 mM NaCl, pH 7.5 supplemented with MgCl2, MnCl2, or CaCl2 at different concentrations (0.1 mM, 1 mM, 10 mM), buffer without metal ions serving as control.

S. aureus Newman cells [2] = assay: Zymogram with S. aureus Newman cells embedded in the gel; type: cell-based; conditions: 5 μg protein
Procedure: All purified proteins were analyzed with 15% SDS-PAGE, using a Kaleidoscope Precision Plus Protein Standard (BioRad, Hercules, Calif.). For zymograms, a 300 mL culture volume equivalent of live mid-log phase (OD600nm=0.4-0.6) cells of S. aureus strain Newman was embedded in the gel during polymerization. The protein samples were boiled in Laemmli sample buffer (BioRad) with β-mercaptoethanol, and electrophoresed with identical buffers and voltage for one hour in both the SDS-PAGE and the zymogram using a Mini-Protean TETRA gel system (BioRad). SDS gels were Coomassie stained and zymograms were washed in excess water and further incubated in deionized water for 60 min, followed by incubation in 10 mM Tris, pH 8.0 with 150 mM or 300 mM NaCl for 80 min. Areas of clearing in the turbid zymogram gel indicate a lytic protein in the gel.

MRSA strain NRS382 = assay: Control of systemic MRSA infection in a murine model; type: in vivo, Balb/c mice
[3] = system: staphylococcal strains (MRSA strains, mastitis isolates, coagulase negative staphylococci); assay: Plate lysis assay, whole set of strains; type: cell-based, Staphylococcus; conditions: 100 to 3.125 pmoles spotted
Procedure: (§1) Purified proteins (100 pmoles in a 10 μl volume and five two-fold serial dilutions thereof) were spotted onto a freshly spread lawn of log phase staphylococcal cells (OD600 nm of 0.4-0.6, diluted ¼ before plating) that had air dried for 15 min on gridded TSA (tryptic soy agar) plates. The spotted plates were air dried for 10 min in a laminar flow hood and incubated overnight at 37° C. Cleared spots indicating cell lysis were scored within 24 hours of plating the cells.
(§2) The φSH2 full length enzyme and the A1 construct were further tested in plate lysis assays against a set of different staphylococcal strains, including MRSA strains (NRS 382-385), mastitis isolates (305, Tanji 1-26), and coagulase negative staphylococci (non S. aureus) (Table 2). The same molar amounts of both proteins (ranging from 100 pmoles to 3.125 pmoles, in a volume of 10 ul) were spotted onto lawns of mid log phase cells of the respective strains, and the plates were analyzed for lysis zones the next day.

S. chromogenes = assay: Plate lysis assay; type: cell-based; conditions: 100 pmoles and 2-fold serial dilutions spotted on bacterial lawns
Procedure: as §1, §2

S. simulans = assay: Plate lysis assay; type: cell-based
Procedure: as §1, §2

S. xylocus = assay: Plate lysis assay; type: cell-based; conditions: 100 pmoles and 2-fold serial dilutions spotted on bacterial lawns
Procedure: as §1, §2

S. aureus Tanji 19 = assay: Plate lysis assay; type: cell-based; conditions: 100 pmoles and 2-fold serial dilutions spotted on bacterial lawns
Procedure: as §1, §2

S. aureus NRS 385 = assay: Plate lysis assay; type: cell-based; conditions: S. aureus NRS 385 (MRSA); 100 pmoles and 2-fold serial dilutions spotted on bacterial lawns
Procedure: as §1, §2

S. aureus Tanji 20 = assay: Plate lysis assay; type: cell-based; conditions: 100 pmoles and 2-fold serial dilutions spotted on bacterial lawns
Procedure: as §1, §2

S. aureus NRS 383 = assay: Plate lysis assay; type: cell-based; conditions: S. aureus NRS 383 (MRSA); 100 pmoles and 2-fold serial dilutions spotted on bacterial lawns
Procedure: as §1, §2

S. hyicus = assay: Plate lysis assay; type: cell-based
Procedure: as §1, §2

S. aureus NRS 384 = assay: Plate lysis assay; type: cell-based; conditions: S. aureus NRS 384 (MRSA); 100 pmoles and 2-fold serial dilutions spotted on bacterial lawns
Procedure: as §1, §2

S. aureus Tanji 1 = assay: Plate lysis assay; type: cell-based; conditions: 100 pmoles and 2-fold serial dilutions spotted on bacterial lawns
Procedure: as §1, §2

S. aureus Newman = assay: Plate lysis assay; type: cell-based
Procedure: as §1, §2

S. warneri = assay: Plate lysis assay; type: cell-based; conditions: 100 pmoles and 2-fold serial dilutions spotted on bacterial lawns
Procedure: as §1, §2

S. aureus 305 = assay: Plate lysis assay; type: cell-based; conditions: 100 pmoles and 2-fold serial dilutions spotted on bacterial lawns
Procedure: as §1, §2

S. epidermidis = assay: Plate lysis assay; type: cell-based; conditions: 100 pmoles and 2-fold serial dilutions spotted on bacterial lawns
Procedure: as §1, §2

S. aureus Tanji 26 = assay: Plate lysis assay; type: cell-based; conditions: 100 pmoles and 2-fold serial dilutions spotted on bacterial lawns
Procedure: as §1, §2

S. aureus NRS 382 = assay: Plate lysis assay; type: cell-based; conditions: S. aureus NRS 382 (MRSA); 100 pmoles and 2-fold serial dilutions spotted on bacterial lawns
Procedure: as §1, §2

[4] = 100 pmoles and 2-fold serial dilutions spotted on bacterial lawns

B1: ΦSH2 full length: Full length C-terminally 6×His-tagged Staphylococcus haemolyticus φSH2 prophage endolysin (1-493), SEQ ID NO:2 (protein)
chain: MKTQAEINKRLDAYRKGTVDSPYRVKVWTSYDNRFYPMEPGCIDVDKSFHAQCADLTIDYILWLTDNEFRIRGNAKDAINPKKNKLPEGWKIVLNRPSTVPRKGWIAVFTDGTYWEYGHIGMVYDGGNTSRFQILEQNWNGWANKKPSLRWDNYYGLTHFIVPPVAKENKAVSSSKQQAPKQKVKKASTKKALPKITKHITGYNMDKRGYNPKGVVLHNDAGGMNYKQYYNNLVNANYDRLARGIAHAYVDRTGIWEAIDESRIAWHVADGTRPGSGNHDFYGIEVNQSLRASDKEFLENEQAVFQFAAEKLKKWGLPANRNTVRLHNEFSQTSCPHRSMVLHTGLDPLYHSITEHARLKLKDYFIKQIRAYMDGKKPTSKVVVSKPGSASTPATRKDANGYRENPHGTLYKEEHATFTANANIITRYVGPFTNMPQAGILKAGQTIIYDEVMKQDGYIWVGYTAYNGKRVYLPVRKWNRETDSVGKLWGVISLEHHHHHH
modifications: C-terminal 6xHis tag; Bacteriophage Phi SH2
- NaCl concentration of optimum lytic activity (S. aureus Newman cells [1]; 1 μM protein, 10 mM Tris pH 7.5, NaCl 0-600 mM): 300 mM
- lytic activity in turbidity reduction assays (in words) (S. aureus Newman cells [1]; 1 μM protein, different NaCl concentrations): moderate lytic activity
- increase of lytic activity by Ca2+ (S. aureus Newman cells [1]; 10 mM CaCl2, relative to 0 mM, 10 mM Tris, 200 mM NaCl, pH 7.5): three-fold
- effect of Mg2+ on lytic activity (S. aureus Newman cells [1]; 0.1-10 mM MgCl2, 10 mM Tris, 200 mM NaCl, pH 7.5): not significantly alter
- effect of Mn2+ on lytic activity (S. aureus Newman cells [1]; 0.1-10 mM MnCl2, 10 mM Tris, 200 mM NaCl, pH 7.5): slightly inhibitory effect
- lysis in zymogram (S. aureus Newman cells [2]; after incubation in deionized water for 60 min): faint zones of lysis
- lysis in zymogram (S. aureus Newman cells [2]; water 60 min, then 10 mM Tris, 150 mM NaCl, pH 8.0 up to 80 min): considerably weaker
- lysis in zymogram (S. aureus Newman cells [2]; water 60 min, then 10 mM Tris, 300 mM NaCl, pH 8.0 for 80 min): pronounced lytic band
- % Survival (MRSA strain NRS382; 0 hours, mice infected i.p. with MRSA NRS382, treated 30 min post infection (φSH2 200 μg/mouse i.p.; Vancomycin 375 μg/mouse s.c.; Oxacillin 1250 μg/mouse s.c.)): 100%
- % Survival (MRSA strain NRS382; 4 hours, same infection and treatment): 100%
- % Survival (MRSA strain NRS382; 8 hours, same infection and treatment): 100%
- % Survival (MRSA strain NRS382; 12 hours, same infection and treatment): 100%
- % Survival (MRSA strain NRS382; 16 hours, same infection and treatment): 100%
- % Survival (MRSA strain NRS382; 20 hours, same infection and treatment): 100%
- % Survival (MRSA strain NRS382; 24 hours, same infection and treatment): 100%
- % Survival (MRSA strain NRS382; 28 hours, same infection and treatment): 100%
- % Survival (MRSA strain NRS382; 32 hours, same infection and treatment): 100%
- % Survival (MRSA strain NRS382; 36 hours, same infection and treatment): 100%
- % Survival (MRSA strain NRS382; 40 hours, same infection and treatment): 100%
- % Survival (MRSA strain NRS382; 44 hours, same infection and treatment): 100%
- % Survival (MRSA strain NRS382; 48 hours (end of the experiment), same infection and treatment): 100%
- strains against which lytic activity was displayed ([3]; 16 strains tested): 11 out of 16
- MRSA strains lysed ([3]; four MRSA strains (NRS 382-385)): one out of four
- Lytic activity (lowest amount of protein producing a lysis zone) (S. chromogenes): +++ (+++: 25 pmoles)
- Lytic activity (lowest amount of protein producing a lysis zone) (S. simulans; [4]): + (+: 100 pmoles)
- amount of protein causing a lysis zone (S. simulans; 100 to 3.125 pmoles spotted): 100 pmol
- Lytic activity (lowest amount of protein producing a lysis zone) (S. xylocus): +++ (+++: 25 pmoles)
- Lytic activity (lowest amount of protein producing a lysis zone) (S. aureus Tanji 19): ++ (++: 50 pmoles)
- Lytic activity (lowest amount of protein producing a lysis zone) (S. aureus NRS 385): − (‘−’ means that no lysis was observed at the highest amount tested (100 pmoles))
- Lytic activity (lowest amount of protein producing a lysis zone) (S. aureus Tanji 20): ++ (++: 50 pmoles)
- Lytic activity (lowest amount of protein producing a lysis zone) (S. aureus NRS 383): − (‘−’ means that no lysis was observed at the highest amount tested (100 pmoles))
- Lytic activity (lowest amount of protein producing a lysis zone) (S. hyicus; [4]): ++++++ (++++++: ≦3.125 pmoles)
- amount of protein causing a lysis zone (S. hyicus; 100 to 3.125 pmoles spotted): lowest amount tested
- Lytic activity (lowest amount of protein producing a lysis zone) (S. aureus NRS 384): + (+: 100 pmoles)
- Lytic activity (lowest amount of protein producing a lysis zone) (S. aureus Tanji 1): ++ (++: 50 pmoles)
- Lytic activity (lowest amount of protein producing a lysis zone) (S. aureus Newman; [4]): − (‘−’ means that no lysis was observed at the highest amount tested (100 pmoles))
- amount of protein causing a lysis zone (S. aureus Newman; 100 to 3.125 pmoles spotted): not lysed by the highest amount
- Lytic activity (lowest amount of protein producing a lysis zone) (S. warneri): +++ (+++: 25 pmoles)
- Lytic activity (lowest amount of protein producing a lysis zone) (S. aureus 305): ++ (++: 50 pmoles)
- Lytic activity (lowest amount of protein producing a lysis zone) (S. epidermidis): − (‘−’ means that no lysis was observed at the highest amount tested (100 pmoles))
- Lytic activity (lowest amount of protein producing a lysis zone) (S. aureus Tanji 26): + (+: 100 pmoles)
- Lytic activity (lowest amount of protein producing a lysis zone) (S. aureus NRS 382): − (‘−’ means that no lysis was observed at the highest amount tested (100 pmoles))
